Measured values from paper PMC8164048.

Tests used:
[1] = biological target: Full-length human low-density lipoprotein receptor-related protein 1 (LRP1) (human) (UniProt Q07954); assay: SPR; full-length LRP1 coupled to the chip (Biacore 3000); single-cycle kinetic titration of tau forms (3.8, 11.5, 34.4, 103.3, 310 nM, 3.5-min injections), with Ca2+; Req from a pseudo first-order fit plotted against concentration, KD by nonlinear regression
[2] = biological target: Full-length human low-density lipoprotein receptor-related protein 1 (LRP1) (human) (UniProt Q07954); assay: SPR; LRP1-coupled chip; lipid-free apoE isoforms injected at 52, 104, 208, 417, 834, 1668 nM; association and dissociation fit globally to a bivalent binding model; KD = 1/KA, KA = (ka1/kd1)*(1+(ka2/kd2))
[3] = biological target: Full-length human low-density lipoprotein receptor-related protein 1 (LRP1) (human) (UniProt Q07954); assay: SPR; LRP1-coupled chip; lipid-free apoE isoforms; equilibrium analysis, Req from a pseudo first-order fit of the association data

UniProt Q07954, sequence (Q07954 20-4544): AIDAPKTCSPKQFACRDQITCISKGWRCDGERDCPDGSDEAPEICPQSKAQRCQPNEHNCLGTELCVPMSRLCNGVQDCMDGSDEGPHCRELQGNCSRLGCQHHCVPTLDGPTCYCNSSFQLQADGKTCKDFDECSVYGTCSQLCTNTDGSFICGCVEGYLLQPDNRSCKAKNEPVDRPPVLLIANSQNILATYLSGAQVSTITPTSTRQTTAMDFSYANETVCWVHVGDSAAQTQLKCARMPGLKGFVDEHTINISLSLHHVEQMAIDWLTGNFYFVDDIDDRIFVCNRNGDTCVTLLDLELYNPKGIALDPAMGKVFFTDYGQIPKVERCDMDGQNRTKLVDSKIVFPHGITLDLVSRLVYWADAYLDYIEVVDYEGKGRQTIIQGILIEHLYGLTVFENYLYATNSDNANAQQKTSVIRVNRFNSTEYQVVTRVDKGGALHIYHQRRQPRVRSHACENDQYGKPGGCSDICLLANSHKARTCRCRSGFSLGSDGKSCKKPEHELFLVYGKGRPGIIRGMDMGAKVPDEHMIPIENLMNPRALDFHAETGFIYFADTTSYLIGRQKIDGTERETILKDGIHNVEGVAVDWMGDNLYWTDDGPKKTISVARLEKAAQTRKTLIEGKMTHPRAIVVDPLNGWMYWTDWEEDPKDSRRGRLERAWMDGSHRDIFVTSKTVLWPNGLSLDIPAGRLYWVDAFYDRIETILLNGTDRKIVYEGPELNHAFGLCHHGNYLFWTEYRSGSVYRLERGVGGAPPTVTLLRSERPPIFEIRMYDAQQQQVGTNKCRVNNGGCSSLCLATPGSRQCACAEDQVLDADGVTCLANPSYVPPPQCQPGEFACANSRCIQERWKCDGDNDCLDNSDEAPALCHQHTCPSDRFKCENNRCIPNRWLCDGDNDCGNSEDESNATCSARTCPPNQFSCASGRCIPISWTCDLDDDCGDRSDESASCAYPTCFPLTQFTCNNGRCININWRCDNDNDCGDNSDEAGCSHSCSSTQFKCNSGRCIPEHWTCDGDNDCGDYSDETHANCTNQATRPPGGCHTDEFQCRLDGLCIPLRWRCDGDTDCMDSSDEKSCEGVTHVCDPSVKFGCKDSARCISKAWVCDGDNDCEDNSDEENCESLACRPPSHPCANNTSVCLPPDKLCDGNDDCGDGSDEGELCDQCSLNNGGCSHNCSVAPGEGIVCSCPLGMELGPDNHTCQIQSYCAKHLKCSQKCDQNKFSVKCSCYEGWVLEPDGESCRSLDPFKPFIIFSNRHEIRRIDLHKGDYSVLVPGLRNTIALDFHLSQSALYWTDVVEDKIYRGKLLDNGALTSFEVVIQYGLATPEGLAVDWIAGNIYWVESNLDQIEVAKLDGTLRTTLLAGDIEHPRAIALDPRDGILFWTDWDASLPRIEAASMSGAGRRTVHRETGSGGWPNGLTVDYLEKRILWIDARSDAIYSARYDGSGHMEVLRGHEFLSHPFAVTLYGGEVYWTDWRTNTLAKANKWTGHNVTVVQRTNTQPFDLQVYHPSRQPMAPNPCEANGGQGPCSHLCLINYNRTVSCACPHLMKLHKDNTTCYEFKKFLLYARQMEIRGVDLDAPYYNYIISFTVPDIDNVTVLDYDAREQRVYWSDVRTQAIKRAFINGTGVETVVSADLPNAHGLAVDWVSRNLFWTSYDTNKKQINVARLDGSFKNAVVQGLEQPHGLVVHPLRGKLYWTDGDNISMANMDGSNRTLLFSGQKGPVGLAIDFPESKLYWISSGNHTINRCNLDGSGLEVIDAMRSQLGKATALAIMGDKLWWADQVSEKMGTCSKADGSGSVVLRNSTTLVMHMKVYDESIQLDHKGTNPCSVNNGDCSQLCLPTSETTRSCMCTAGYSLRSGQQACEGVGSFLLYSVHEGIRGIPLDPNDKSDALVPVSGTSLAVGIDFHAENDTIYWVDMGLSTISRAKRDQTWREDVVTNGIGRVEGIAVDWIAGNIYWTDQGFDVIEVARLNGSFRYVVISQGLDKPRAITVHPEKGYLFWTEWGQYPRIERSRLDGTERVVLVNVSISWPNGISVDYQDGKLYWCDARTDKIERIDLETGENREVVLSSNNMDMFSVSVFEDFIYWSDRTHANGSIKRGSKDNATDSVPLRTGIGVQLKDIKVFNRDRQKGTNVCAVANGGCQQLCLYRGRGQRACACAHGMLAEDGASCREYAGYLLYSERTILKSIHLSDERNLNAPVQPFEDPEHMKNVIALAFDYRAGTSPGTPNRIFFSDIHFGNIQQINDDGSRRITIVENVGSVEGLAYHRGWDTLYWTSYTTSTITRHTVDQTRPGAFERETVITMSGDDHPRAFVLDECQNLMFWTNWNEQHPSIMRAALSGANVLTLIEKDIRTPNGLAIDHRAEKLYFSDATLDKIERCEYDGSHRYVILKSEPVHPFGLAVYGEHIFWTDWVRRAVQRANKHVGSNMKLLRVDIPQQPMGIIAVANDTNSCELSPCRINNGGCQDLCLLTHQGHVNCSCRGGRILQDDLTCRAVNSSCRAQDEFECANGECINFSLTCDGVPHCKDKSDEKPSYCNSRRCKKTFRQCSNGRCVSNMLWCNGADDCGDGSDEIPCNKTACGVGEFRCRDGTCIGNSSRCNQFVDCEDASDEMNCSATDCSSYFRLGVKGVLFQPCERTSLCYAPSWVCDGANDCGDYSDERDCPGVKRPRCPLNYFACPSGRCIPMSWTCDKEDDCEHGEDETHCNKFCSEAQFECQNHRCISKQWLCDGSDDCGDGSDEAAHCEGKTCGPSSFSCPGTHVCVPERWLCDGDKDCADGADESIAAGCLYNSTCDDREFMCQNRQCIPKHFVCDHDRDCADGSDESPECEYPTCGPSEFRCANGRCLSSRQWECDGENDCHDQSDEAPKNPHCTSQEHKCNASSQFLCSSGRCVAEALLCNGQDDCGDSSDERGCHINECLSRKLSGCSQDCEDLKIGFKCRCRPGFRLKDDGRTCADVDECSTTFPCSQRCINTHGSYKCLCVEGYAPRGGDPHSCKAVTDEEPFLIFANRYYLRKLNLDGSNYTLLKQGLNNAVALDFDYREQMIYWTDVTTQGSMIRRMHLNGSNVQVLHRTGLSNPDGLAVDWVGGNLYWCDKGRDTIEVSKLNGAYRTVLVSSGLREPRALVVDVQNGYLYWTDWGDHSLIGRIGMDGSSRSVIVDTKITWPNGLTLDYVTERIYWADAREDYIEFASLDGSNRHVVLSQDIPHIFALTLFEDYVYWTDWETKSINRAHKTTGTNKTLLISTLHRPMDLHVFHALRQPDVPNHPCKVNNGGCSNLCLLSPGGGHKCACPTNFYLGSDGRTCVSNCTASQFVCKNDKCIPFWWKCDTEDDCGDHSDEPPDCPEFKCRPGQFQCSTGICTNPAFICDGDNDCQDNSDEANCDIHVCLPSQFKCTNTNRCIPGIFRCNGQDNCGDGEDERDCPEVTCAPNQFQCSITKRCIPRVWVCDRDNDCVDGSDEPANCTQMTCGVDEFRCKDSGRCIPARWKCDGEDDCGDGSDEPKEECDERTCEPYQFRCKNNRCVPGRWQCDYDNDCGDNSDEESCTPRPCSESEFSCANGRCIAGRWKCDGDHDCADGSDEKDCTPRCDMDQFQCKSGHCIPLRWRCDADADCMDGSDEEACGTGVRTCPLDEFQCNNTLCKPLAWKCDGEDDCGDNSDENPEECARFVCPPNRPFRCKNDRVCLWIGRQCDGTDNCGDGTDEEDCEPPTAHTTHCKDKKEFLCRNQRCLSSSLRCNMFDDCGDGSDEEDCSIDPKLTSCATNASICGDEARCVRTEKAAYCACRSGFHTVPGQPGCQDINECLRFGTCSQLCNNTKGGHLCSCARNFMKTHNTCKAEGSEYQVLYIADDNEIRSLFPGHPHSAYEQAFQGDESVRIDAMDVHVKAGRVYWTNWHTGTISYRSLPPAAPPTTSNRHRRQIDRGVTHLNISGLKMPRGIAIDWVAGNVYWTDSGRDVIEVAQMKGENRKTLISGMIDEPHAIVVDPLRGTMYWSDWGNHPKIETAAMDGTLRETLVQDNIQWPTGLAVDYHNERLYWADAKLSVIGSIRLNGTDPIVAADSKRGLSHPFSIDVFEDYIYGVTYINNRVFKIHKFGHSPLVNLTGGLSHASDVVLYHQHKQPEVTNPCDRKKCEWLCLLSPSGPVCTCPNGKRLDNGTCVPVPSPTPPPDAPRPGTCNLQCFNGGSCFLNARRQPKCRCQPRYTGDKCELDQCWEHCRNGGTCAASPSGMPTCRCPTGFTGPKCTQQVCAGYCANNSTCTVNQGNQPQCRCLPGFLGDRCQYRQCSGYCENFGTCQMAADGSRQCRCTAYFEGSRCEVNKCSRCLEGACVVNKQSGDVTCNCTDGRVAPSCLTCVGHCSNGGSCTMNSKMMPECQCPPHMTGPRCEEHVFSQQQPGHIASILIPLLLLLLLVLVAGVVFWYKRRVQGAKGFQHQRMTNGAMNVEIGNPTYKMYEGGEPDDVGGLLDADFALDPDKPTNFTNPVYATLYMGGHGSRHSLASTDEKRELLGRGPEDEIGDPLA

| Substance | Kd [1] [nM] | Kd [2] [nM] | ka1 [2] [M⁻¹ s⁻¹] | ka2 [2] [s⁻¹] | kd1 [2] [s⁻¹] | kd2 [2] [s⁻¹] | Kd [3] [nM] |
| --- | --- | --- | --- | --- | --- | --- | --- |
| 9XKQ 2N4R tau (natural protein) | 372 |  |  |  |  |  |  |
| Recombinant human apolipoprotein E4 (lipid-free) (from UniProt P02649 19-317) (ligand) |  | 202 | 62000 | 0.0099 | 0.065 | 0.0027 | 236 |
| Recombinant human apolipoprotein E2 (lipid-free) (from UniProt P02649 19-317) (ligand) |  | 529 | 34000 | 0.01 | 0.086 | 0.0028 | 493 |
